In US10196442B2, “Methods of inhibiting growth of a colon cancer tumor in a subject by administering monoclonal antibodies to G protein-coupled receptor 49 (GPR49)” (Bionomics Inc., priority 2011, dated 2019):

Experiments:
GPR49-Fc = molecular target: T1, GPR49-Fc (Homo sapiens, UniProt O75473); assay: Solution affinity surface plasmon resonance of RSPO-1 on GPR49-Fc; assay type: binding; conditions: solution affinity SPR
T1 construct: FLAG (C)
Description: Methods: Binding of RSPO to GPR49 was analyzed using solution affinity surface plasmon resonance (Day E S, et al. Biochemistry. 2005 Feb. 15; 44(6):1919-31). The method utilizes conditions of so-called “mass-transport-limited” binding, in which the initial rate of ligand binding (protein binding to the senor chip) is proportional to the concentration of ligand in solution (BIApplications Handbook (1994) Chapter 6: Concentration measurement, pp 6-1-6-10, Pharmacia Biosensor AB). Under these conditions, binding of the soluble analyte (protein flowing over chip surface) to the immobilized protein on the chip is fast compared to the diffusion of the analyte into the dextran matrix on the chip surface. Therefore, the diffusion properties of the analyte and the concentration of analyte in solution flowing over the chip surface determine the rate at which analyte binds to the chip. In this experiment, the concentration of free RSPO-1 in solution is determined by the initial rate of binding to a CMS Biacore chip containing immobilized GPR49-Fc. Into these RSPO-1 solutions were titrated the competing GPR49-Fc.

[1] = tested on: NIH 3T3 fibroblast cells stably transfected with GPR49; assay: Cell Titer Glo proliferation of GPR49-3T3 cells; assay type: cell-based

T1 sequence (O75473 with tags, fused parts or gaps): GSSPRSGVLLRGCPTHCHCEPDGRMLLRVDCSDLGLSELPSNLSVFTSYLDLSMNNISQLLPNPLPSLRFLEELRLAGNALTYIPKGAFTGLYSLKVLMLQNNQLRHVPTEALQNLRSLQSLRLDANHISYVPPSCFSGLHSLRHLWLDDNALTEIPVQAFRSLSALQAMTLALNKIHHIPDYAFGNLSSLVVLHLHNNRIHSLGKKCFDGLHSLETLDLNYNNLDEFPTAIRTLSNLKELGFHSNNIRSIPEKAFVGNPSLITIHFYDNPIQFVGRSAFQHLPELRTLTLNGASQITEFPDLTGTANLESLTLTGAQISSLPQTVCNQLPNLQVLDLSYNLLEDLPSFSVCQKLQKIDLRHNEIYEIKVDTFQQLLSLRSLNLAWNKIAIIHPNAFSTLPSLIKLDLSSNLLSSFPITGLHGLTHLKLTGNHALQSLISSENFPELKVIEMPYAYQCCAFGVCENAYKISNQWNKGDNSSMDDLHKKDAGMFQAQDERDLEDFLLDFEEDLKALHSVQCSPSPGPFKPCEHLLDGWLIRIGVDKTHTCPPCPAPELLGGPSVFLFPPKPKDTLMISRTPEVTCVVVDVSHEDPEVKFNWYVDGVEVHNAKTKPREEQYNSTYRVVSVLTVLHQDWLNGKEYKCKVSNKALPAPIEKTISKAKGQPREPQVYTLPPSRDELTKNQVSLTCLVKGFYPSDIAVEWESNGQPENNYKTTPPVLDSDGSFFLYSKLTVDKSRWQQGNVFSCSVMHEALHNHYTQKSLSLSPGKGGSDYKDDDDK

binding profile to GPR49-Fc (GPR49-Fc): bi-phasic binding profile
B1: R-spondin 1: R-spondin family ligand purchased from R& D systems (protein, UniProt Q2MKA7 21-263, looked up)
R-spondin-1: SRGIKGKRQRRISAEGSQACAKGCELCSEVNGCLKCSPKLFILLERNDIRQVGVCLPSCPPGYFDARNPDMNKCIKCKIEHCEACFSHNFCTKCKEGLYLHKGRCYPACPEGSSAANGTMECSSPAQCEMSEWSPWGPCSKKQQLCGFRRGSEERTRRVLHAPVGDHAACSDTKETRRCTVRRVPCPEGQKRRKGGQGRRENANRNLARKESKEAGAGSRRRKGQQQQQQQGTVGPLTSAGPA
increase in proliferation ([1]; GPR49-3T3 clone 28, compared to Stanniocalcin): 4 fold
increase in cell proliferation ([1]; GPR49-3T3 clone 50, 2 days, serum free, compared to Stanniocalcin): 25-40%
